The values that follow come from patent US20260184748A1, “COMPOSITIONS COMPRISING OCTADECANEUROPEPTIDES (ODN) AND SYNTHETIC DERIVATIVES THEREOF AND METHODS OF USE FOR MODULATION OF FOOD INTAKE, OBESITY, BODY WEIGHT, NAUSEA, AND EMESIS” (The Trustees of the University of Pennsylvania, priority 2022, published 2026).

Entries after “also recorded” stand apart in the source; their conditions may differ.

The target of experiment [1] is T1, CCR10 (Homo sapiens, UniProt P46092).
T1 sequence (P46092 1-362): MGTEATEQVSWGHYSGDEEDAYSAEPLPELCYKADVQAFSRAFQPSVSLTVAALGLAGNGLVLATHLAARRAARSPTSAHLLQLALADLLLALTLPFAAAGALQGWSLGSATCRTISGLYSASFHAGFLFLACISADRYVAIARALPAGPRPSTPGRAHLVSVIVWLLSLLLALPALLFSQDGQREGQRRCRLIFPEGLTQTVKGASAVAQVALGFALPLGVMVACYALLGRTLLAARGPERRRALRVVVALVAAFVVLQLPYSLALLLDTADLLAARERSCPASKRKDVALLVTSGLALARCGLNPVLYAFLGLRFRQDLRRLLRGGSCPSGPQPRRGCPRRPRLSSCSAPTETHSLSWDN
Put plainly: Arrestin agonist mode. It counts as cell-based. As to conditions: read-out: RC50 (the source's name).

Experiment [2] in a line: Insulin tolerance test after 4th ventricle ODN. It counts as in vivo, rat. As to conditions: 4th ventricle pretreatment then ODN 200 μg/2 μL; chow rats.
Experiment [3] addresses T2, relaxin-3 receptor (Rattus norvegicus, UniProt Q5Y987).
T2 construct: expressed a high level of the relaxin-3 receptor; from tissue; host or cells: rat brain, nucleus incertus (living animal)
T2 sequence (Q5Y987 1-469): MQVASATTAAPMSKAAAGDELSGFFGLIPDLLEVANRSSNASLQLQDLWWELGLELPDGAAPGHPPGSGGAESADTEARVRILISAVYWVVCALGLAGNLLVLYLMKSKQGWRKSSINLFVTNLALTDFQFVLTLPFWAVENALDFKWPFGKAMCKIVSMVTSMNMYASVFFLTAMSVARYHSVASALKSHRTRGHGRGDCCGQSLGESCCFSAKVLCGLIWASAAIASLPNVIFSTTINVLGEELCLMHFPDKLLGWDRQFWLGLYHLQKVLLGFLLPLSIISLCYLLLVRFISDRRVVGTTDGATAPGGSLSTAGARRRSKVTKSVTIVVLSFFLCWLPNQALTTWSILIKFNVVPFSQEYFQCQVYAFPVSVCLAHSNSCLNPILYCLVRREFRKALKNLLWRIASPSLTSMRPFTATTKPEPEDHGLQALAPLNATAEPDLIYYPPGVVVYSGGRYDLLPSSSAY
In words: Central ODN antagonizes relaxin-3 induced hyperphagia. As to conditions: injection into the nucleus incertus; rats. The class given is in vivo. Here is the method:
Rats were stereotaxically implanted with a bilateral guide cannula (26-ga, Plastics One) aimed at the nucleus incertus (guide cannula coordinates: ±0.5 lateral to midline, 9.5 mm […] to bregma, 5.8 mm ventral to skull; internal cannula aimed 7.8 mm ventral to skull). Recombinant human relaxin-3 was purchased (130-10, PreproTech Inc.) and ODN was synthesized by the Doyle laboratory. […] 24 h food intake was recorded in a Biodaq system (Research Diets, Inc).

Experiment [4] concerns the target T3, RXFP3 (Homo sapiens, UniProt Q9NSD7).
T3 sequence (Q9NSD7 1-469): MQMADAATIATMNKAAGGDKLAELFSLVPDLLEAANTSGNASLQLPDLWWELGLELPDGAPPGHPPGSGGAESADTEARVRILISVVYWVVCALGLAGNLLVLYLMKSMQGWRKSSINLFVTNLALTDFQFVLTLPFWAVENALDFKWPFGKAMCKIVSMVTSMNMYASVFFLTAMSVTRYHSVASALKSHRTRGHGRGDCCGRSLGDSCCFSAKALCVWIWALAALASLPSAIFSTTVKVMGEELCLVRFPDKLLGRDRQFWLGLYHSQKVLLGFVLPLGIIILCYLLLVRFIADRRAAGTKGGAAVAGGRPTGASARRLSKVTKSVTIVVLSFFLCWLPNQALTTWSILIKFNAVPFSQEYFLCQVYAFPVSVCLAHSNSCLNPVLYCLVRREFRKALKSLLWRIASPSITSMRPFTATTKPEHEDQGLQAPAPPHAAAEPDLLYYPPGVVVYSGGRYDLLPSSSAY
Put plainly: Arrestin agonist mode. It counts as cell-based. As to conditions: read-out: RC50 (the source's name).

For experiment [5], the target named is CCR8 (Homo sapiens, UniProt P51685). In words: Arrestin agonist mode. As to conditions: read-out: RC50 (the source's name). It counts as cell-based.
Experiment [6] concerns the target T4, C5aR1 (Homo sapiens, UniProt P21730).
T4 sequence (P21730 1-350): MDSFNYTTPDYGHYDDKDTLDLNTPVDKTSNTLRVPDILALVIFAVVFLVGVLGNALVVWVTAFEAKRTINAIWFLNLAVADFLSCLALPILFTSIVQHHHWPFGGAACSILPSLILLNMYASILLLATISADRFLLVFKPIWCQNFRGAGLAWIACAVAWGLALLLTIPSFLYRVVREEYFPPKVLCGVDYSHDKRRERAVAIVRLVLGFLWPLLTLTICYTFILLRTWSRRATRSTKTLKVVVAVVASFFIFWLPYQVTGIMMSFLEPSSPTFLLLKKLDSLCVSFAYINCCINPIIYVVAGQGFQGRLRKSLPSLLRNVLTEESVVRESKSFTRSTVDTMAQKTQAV
Put plainly: Arrestin agonist mode. As to conditions: read-out: RC50 (the source's name). The class given is cell-based.

The target of experiment [7] is C5L2 (Homo sapiens, UniProt Q9P296). In words: Arrestin agonist mode. It counts as cell-based. As to conditions: read-out: RC50 (the source's name).
Chain of C5L2 (Q9P296 whole entry): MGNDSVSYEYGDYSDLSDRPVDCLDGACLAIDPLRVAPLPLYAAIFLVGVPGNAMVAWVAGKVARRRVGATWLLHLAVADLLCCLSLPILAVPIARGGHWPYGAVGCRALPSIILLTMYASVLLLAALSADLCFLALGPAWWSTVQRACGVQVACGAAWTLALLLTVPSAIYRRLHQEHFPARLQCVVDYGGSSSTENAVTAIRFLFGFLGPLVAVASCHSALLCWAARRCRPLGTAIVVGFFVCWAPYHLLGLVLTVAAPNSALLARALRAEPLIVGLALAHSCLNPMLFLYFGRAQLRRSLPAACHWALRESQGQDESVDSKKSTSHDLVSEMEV
Experiment [8] deals with T5, CCR4 (Homo sapiens, UniProt P51679).
T5 sequence (P51679 1-360): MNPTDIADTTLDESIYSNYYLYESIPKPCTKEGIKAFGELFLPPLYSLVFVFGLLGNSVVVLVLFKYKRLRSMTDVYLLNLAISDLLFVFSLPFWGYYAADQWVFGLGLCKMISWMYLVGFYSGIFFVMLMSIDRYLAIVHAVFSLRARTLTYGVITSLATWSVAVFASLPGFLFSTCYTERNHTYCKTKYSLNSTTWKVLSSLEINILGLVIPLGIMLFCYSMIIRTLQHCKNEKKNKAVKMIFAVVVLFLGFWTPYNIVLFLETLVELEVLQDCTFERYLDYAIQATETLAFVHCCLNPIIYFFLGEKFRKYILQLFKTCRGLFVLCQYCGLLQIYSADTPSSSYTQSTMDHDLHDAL
In words: Arrestin agonist mode. The class given is cell-based. As to conditions: read-out: RC50 (the source's name).

Experiment [9] has as its target T6, CCR9 (Homo sapiens, UniProt P51686).
T6 sequence (P51686 1-369): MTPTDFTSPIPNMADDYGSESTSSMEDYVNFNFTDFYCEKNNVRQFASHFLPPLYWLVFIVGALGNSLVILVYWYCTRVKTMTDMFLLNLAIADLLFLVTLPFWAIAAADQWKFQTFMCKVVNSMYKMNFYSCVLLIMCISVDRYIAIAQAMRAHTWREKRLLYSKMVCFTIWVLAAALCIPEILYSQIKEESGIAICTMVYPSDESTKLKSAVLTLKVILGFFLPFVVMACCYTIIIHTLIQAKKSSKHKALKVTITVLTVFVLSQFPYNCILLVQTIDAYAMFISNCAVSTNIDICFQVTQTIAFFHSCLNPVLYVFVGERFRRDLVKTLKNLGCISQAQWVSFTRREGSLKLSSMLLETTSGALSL
In words: Arrestin agonist mode. The class given is cell-based. As to conditions: read-out: RC50 (the source's name).

Experiment [10] addresses PROKR1 (Homo sapiens, UniProt Q8TCW9). In words: Arrestin agonist mode. It counts as cell-based. As to conditions: read-out: RC50 (the source's name).
Experiment [11] addresses PROKR2 (Homo sapiens, UniProt Q8NFJ6). Put plainly: Arrestin agonist mode. As to conditions: read-out: RC50 (the source's name). It counts as cell-based.
Experiment [12] can be described thus: Food intake and meal pattern after central injection in rats. The class given is in vivo, rat. As to conditions: for food intake: 4th ventricle injection. Here is the method: Rats were exposed to kaolin for at least 5 days prior to measuring kaolin consumption in pica testing. Except for studies conducted in the BioDaq, for all feeding studies rats were housed in hanging wire cages to allow for accurate measurement of food spillage.
For cannula implantation, rats were anesthetized by intraperitoneal injection of a mixture containing ketamine (90 mg/kg, Butler Animal Health Supply), xylazine (2.7 mg/kg, Anased), and acepromazine (0.64 mg/kg, Butler Animal Health Supply) (KAX) and then placed into a stereotaxic apparatus. Each rat was stereotaxically implanted with a guide cannula (26-ga, Plastics One) aimed at the fourth ventricle (guide cannula coordinates: on midline, 2.5 mm anterior to occipital suture, 5.2 mm ventral to skull; internal cannula aimed 7.2 mm ventral to skull) or the lateral ventricle (guide cannula coordinates: 1.5 mm lateral to midline, 0.9 mm posterior to bregma, 1.8 mm ventral to skull; internal cannula aimed 3.8 mm ventral to skull). For all cannulas, dummies (no projection beyond guide) were inserted in the guide cannula and left until infusions were performed. For all surgeries, rats received post-operative temperature support and analgesia was provided immediately following surgery and for two post-operative days (2 mg/kg meloxicam).

The nature of experiment [13]: 24 h body weight change in rats. As to conditions: 4th ventricle injection. It counts as in vivo, rat.
The mark [14] stands for this setting: 4th ventricle, chow-maintained rats.

Chain of PROKR1 (Q8TCW9 whole entry): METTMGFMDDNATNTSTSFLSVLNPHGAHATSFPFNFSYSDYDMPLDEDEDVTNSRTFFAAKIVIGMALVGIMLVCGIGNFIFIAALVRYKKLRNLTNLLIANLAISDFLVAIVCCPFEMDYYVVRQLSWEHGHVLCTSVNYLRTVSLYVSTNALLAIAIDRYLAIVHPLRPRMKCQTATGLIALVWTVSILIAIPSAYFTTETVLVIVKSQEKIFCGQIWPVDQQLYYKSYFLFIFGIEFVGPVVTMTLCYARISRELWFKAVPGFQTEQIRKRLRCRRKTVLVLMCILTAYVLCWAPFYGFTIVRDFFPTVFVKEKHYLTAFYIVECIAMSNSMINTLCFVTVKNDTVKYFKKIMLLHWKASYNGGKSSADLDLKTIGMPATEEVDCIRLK
Chain of PROKR2 (Q8NFJ6 whole entry): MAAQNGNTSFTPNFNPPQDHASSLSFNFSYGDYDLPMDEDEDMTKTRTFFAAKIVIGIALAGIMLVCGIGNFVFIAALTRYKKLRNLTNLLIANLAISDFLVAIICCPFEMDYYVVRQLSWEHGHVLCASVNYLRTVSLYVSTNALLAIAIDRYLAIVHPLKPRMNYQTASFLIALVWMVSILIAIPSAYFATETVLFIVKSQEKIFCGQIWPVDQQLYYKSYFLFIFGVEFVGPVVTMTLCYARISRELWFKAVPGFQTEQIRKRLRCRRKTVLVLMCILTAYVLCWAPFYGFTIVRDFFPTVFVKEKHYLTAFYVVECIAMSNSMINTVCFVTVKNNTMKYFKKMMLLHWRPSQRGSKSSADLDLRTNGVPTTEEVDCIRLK

B1: CCL27: control agonist (protein)
chain: FLLPPSTACCTQLYRKPLSDKLLRKVIQVELQEADGDCHLQAFVLHLAQRSICIHPQNPSLSQWFEHQERKLHGTLPKLNFGMLRKMG
Regarding B1, in experiment [1], the EC50 was found to be 26.3 nM.

B2: Relaxin-3: Recombinant human relaxin-3 (130-10, PreproTech); control agonist of RXFP3 (protein)
chain 1: RAAPYGVRLCGREFIRAVIFTCGGSRWRRSDILAHEAMGDTFPDADADEDSLAGELDEAMGSSEWLALTKSPQAFYRGRPSWQGTPGVLRGSRDVLAGLSSSCCKWGCSKSEISSLC
chain 2: RAAPYGVRLCGREFIRAVIFTCGGSRWRRSDILAHEAMGDTFPDADADEDSLAGELDEAMGSSEWLALTKSPQAFYRGRPSWQGTPGVLRGSRDVLAGLSSSCCKWGCSKSEISSLC
As to B2, the “effect of pretreatment on ODN improvement in insulin tolerance” value in [2] is “block hindbrain ODN improvements in insulin tolerance”. Also, the “24-hour food intake and body weight” value in experiment [3] was “increased 24-hour food intake and body weight”. For the same molecule, the EC50 in experiment [4] turned out to be 11.9 nM.

B3: CCL1: control agonist (protein)
chain: KSMQVPFSRCCFSFAEQEIPLRAILCYRNTSSICSNEGLIFKLKRGKEACALDTVGWVQRHRKMLRHCPSKRK
With B3, in experiment [5], the EC50 amounted to 45.8 nM.

B4: Complement C5a: control agonist (protein)
chain: TLQKKIEEIAAKYKHSVVKKCCYDGACVNNDETCEQRAARISLGPRCIKAFTECCVVASQLRANISHKDMQLGR
B4: the EC50 in [6] came out at 1.38 nM; in experiment [7], 1.57 nM.

B5: CCL22: control agonist (protein)
chain: GPYGANMEDSVCCRDYVRYRLPLRVVKHFYWTSDSCPRPGVVLLTFRDKEICADPRVPWVKMILNKLSQ
With B5, in experiment [8], the EC50 worked out at 3.44 nM.

B6: CCL25: control agonist (protein)
chain: QGVFEDCCLAYHYPIGWAVLRRAWTYRIQEVSGSCNLPAAIFYLPKRHRKVCGNPKSREVQRAMKLLDARNKVFAKLHHNTQTFQAGPHAVKKLSSGNSKLSSSKFSNPISSSKRNVSLLISANSGL
With B6, in experiment [9], the EC50 turned out to be 173 nM.

B7: EG VEGF: control agonist (protein)
chain: AVITGACERDVQCGAGTCCAISLWLRGLRMCTPLGREGEECHPGSHKVPFFRKRKHHTCPCLPNLLCSRFPDGRYRCSMDLKNINF
On to B7, for which the results for the EC50 in experiment [10] and in [11] were 17.7 nM and 10.6 nM, respectively.

B8: recombinant DBI protein: Rat recombinant diazepam binding inhibitor (DBI) protein (LS-G136996, Lifespan Biosciences) (protein, UniProt P11030 2-87, looked up)
Acyl-CoA-binding protein: SQADFDKAAEEVKRLKTQPTDEEMLFIYSHFKQATVGDVNTDRPGLLDLKGKAKWDSWNKLKGTSKENAMKTYVEKVEELKKKYGI
Consider B8, for which the food intake result in experiment [12] (HFD-maintained rats) was “not high-fat diet (HFD) rats”; in [12] (HFD-maintained rats, listed as DBI), “did not decrease food intake in HFD-maintained rats”; in [12] (chow-maintained rats), “suppresses food intake in chow fed rats; also recorded: hypophagic in chow”; in [12] (chow-maintained rats, listed as DBI), “significantly reduced food intake at 4, 5, and 7-24 hours post injection; also recorded: decreased food intake at 4, 5, and 7-24 hours post injection”. Further, in [12] (setting [14]), the number of bouts result was “decreased the number of bouts at 8 and 21 hours post injection”. Further, the number of meals entry in experiment [12] (setting [14]) is “decreased the number of meals at 8-10 and 12-21 hours post injection”. For the same molecule, the “time spent in bouts” value in [12] (setting [14]) was “did not alter the time spent in bouts”. Moreover, in experiment [12] (setting [14]), the “time spent in meals” value is “decreased the time spent in meals 8-24 hours post injection”. In addition, the “24 h body weight change” value in experiment [13] (HFD-maintained rats) and in [13] (chow-maintained rats) was “not significantly decreased” each time.
